# According to article PMC2793005, “Dissecting the Role of Critical Residues and Substrate Preference of a Fatty Acyl-CoA Synthetase (FadD13) of Mycobacterium tuberculosis” (PLoS ONE, 2009):
# B1: Fatty Acyl-CoA Synthetase FadD13 (Rv3089) of Mycobacterium tuberculosis, N-terminal 6x histidine tag (enzyme)
# chain: MKNIGWMLRQRATVSPRLQAYVEPSTDVRMTYAQMNALANRCADVLTALGIAKGDRVALLMPNSVEFCCLFYGAAKLGAVAVPINTRLAAPEVSFILSDSGSKVVIYGAPSAPVIDAIRAQADPPGTVTDWIGADSLAERLRSAAADEPAVECGGDDNLFIMYTSGTTGHPKGVVHTHESVHSAASSWASTIDVRYRDRLLLPLPMFHVAALTTVIFSAMRGVTLISMPQFDATKVWSLIVEERVCIGGAVPAILNFMRQVPEFAELDAPDFRYFITGGAPMPEALIKIYAAKNIEVVQGYALTESCGGGTLLLSEDALRKAGSAGRATMFTDVAVRGDDGVIREHGEGEVVIKSDILLKEYWNRPEATRDAFDNGWFRTGDIGEIDDEGYLYIKDRLKDMIISGGENVYPAEIESVIIGVPGVSEVAVIGLPDEKWGEIAAAIVVADQNEVSEQQIVEYCGTRLARYKLPKKVIFAEAIPRNPTGKILKTVLREQYSATVPK
# notes: also called native FadD13; NP; not shown: His6, N-terminal, kept
# Target: the molecule itself
# Test: SEC
protein,measurement,value
B1,stoichiometry N,2
